Patent US20220249640A1 (Dana-Farber, published 2022)

Tests used:
human PD-1 on cells = human PD-1 on cells (human, UniProt Q15116 25-288); experiment: cell-based or functional assay
[1] = target: T1, PD-1 (soluble, biotinylated, on sensors or coated on plates) (human, UniProt Q15116 25-167, limits assumed, biotinylated (avi tag, Avidity's biotinylation kit) in the Octet assays); experiment: method not stated at the list; Octet curves of the mutants in FIG. 23
T1 construct: also called biotinylated PD-1; soluble PD1

[2] = target: T1, PD-1 (soluble, biotinylated, on sensors …); experiment: Octet (BLI)
[3] = target: T2, mouse PD-1 on transiently transfected Expi293 cells (mouse, UniProt Q02242 25-288); experiment: flow cytometry on transiently transfected Expi293 cells, anti human Fc-APC
T2 construct: whole, on cells; also called mPD-1
T2 sequence (looked up): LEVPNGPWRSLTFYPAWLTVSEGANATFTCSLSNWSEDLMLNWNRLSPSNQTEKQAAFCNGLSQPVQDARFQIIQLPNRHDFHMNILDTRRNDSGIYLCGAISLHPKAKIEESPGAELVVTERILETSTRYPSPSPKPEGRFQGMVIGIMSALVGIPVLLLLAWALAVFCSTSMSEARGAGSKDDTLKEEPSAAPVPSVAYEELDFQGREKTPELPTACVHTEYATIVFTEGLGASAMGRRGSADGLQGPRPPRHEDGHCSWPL
Protocol: 3E5 transiently transfected Expi293 cells were suspended in 100 ul MACS buffer and added to each well. 50 ul of each antibody dilution were then mixed with the cells and the plate was incubated at 4° C. for 30 min. Following incubation, the plate was washed 2× with MACS buffer and then incubated with lul/well anti human Fc-APC (Biolegend #409306). The plate was incubated for 25 min at 4° C. and then washed 3× before running the samples.

T1 sequence (Q15116 25-167 limits assumed): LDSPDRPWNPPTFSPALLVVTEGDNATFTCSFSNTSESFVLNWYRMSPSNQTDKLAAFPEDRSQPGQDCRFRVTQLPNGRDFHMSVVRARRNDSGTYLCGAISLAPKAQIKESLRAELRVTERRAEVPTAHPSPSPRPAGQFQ
human PD-1 on cells, sequence (Q15116 25-288): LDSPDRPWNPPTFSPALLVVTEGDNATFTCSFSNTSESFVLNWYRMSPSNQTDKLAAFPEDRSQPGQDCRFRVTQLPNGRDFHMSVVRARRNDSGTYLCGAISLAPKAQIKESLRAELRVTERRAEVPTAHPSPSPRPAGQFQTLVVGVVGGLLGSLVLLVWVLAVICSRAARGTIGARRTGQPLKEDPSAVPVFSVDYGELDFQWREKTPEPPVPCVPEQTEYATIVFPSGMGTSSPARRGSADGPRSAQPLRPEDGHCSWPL

B1: P4-B3 minibody (scFv-Fc) (Fc fusion)
scFv: QVQLVQSGGGLVQPGRSLRLSCAASGFTFDDYAMHWVRQAPGKGLEWVSGISWNSGSIGYADSVKGRFTVSRDNAKNSLYLQMNSLRAEDTAVYYCASDYGDKYYYYGMDVWGKGTTVTVSSGGGGSGGGGSGGGGSQPGLTQPPSASGTPGQRVTISCSGSSSNIGSNTVNWYQQFPGKAPKLLIFNDNQRPSGVPDRFSASKSGTSASLAISGLQSEDEADYYCAAWDGGLNGRGVFGGGTKLTVL
notes: scFv-Fc (minibody) format; also called P4-B3 WT; P4-B3 wild type; not shown: Fc (hinge-CH2-CH3) of the minibody vector and its junction to the scFv
Question: With B1 as the binder, how does the “EC50, Promega PD1-PDL1 bioassay (scFv-Fc format)” value (human PD-1 on cells) read?
Answer: The value was 1.75 fold of the EC50 of Nivo.

Question: And the Kd [1]?
Answer: Its Kd is ~1 nM.

B2: P4-B3 scFv (scFv)
scFv: B1 scFv
notes: This is a single chain Fv; VH and VL are joined by a G4S linker of which only the DNA is printed
Question: With B2 as the binder, how does the koff [2] read?
Answer: The koff was 6.45e-05 s⁻¹.

Question: And the kon [2]?
Answer: The kon was 68500 M⁻¹ s⁻¹.

B3: P4-B3 IgG1 wild type monomer (antibody, V domains shown)
VH: QVQLVQSGGGLVQPGRSLRLSCAASGFTFDDYAMHWVRQAPGKGLEWVSGISWNSGSIGYADSVKGRFTVSRDNAKNSLYLQMNSLRAEDTAVYYCASDYGDKYYYYGMDVWGKGTTVTVSS
VL: QPGLTQPPSASGTPGQRVTISCSGSSSNIGSNTVNWYQQFPGKAPKLLIFNDNQRPSGVPDRFSASKSGTSASLAISGLQSEDEADYYCAAWDGGLNGRGVFGGGTKLTVLG
Question: With B3 as the binder, how does the “fold induction (RLU stimulated/RLU unstimulated), Promega PD1-PDL1 bioassay” value (human PD-1 on cells) read?
Answer: Its value is ~0.5 fold of the signal of pembro and nivo.

B4: P4-B3 (format not stated) (antibody, V domains shown)
VH: B3 VH
VL: QPGLTQPPSASGTPGQRVTISCSGSSSNIGSNTVNWYQQFPGKAPKLLIFNDNQRPSGVPDRFSASKSGTSASLAISGLQSEDEADYYCAAWDGGLNGRGVFGGGTKLTVL
notes: It was detected with anti human Fc-APC
Question: Does B4 bind [3]?
Answer: Result: binds
